The results in this text go back to the supplement of paper PMC10567573.

± gives the standard deviation.

The data set in a line: protein stability index of a GFP-peptide fusion (GPS, HEK-293T) (PSI 1-6); higher = more stable.
Where [1] appears, read: treatment: DMSO, c terminus: a fixed tail appended.
Setting [2] is: treatment: MLN4924 1 uM, 8 h, c terminus: a fixed tail appended.
[3] abbreviates: treatment: DMSO, c terminus: native.
Where [4] appears, read: treatment: MLN4924 1 uM, 8 h, c terminus: native.
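Also: 24-mer peptide tiles fused after GFP, lentivirally expressed, FACS-sorted into six equal bins by GFP/DsRed ratio, decoded by Illumina sequencing, PSI is the read-weighted mean bin number.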

QEGWIHHLARHAVACFLTRGDLWI [CRY1]: the protein stability index by setting is: under setting [1], 3.05 ± 0.48; under setting [2], 2.89 ± 0.44.

QEVTEPAVVAVDRQAIFPDTWTLT [PXN] showed a protein stability index under setting [1] of 4.06 ± 0.23 and a protein stability index under setting [2] of 3.8 ± 0.36.

For the sequence QFLKELLLKPHSYGRFIRWLNKEK [SPDEF], the protein stability index amounted to 2.28 ± 0.43 under setting [1] and 2.21 ± 0.25 under setting [2].

Regarding QFTKPNASLGDVQSGATISMPCST [SASS6], the protein stability index came to 4.14 ± 0.38 under setting [1] and 4.06 ± 0.69 under setting [2].

For the sequence QGASESQAPGEENLLGEAAGGQDM [HDAC6], the protein stability index by setting is: under setting [1], 5.54 ± 0.22; under setting [2], 5.45 ± 0.2.

Regarding QGHPPSLFPPKAKSNQPKSLEDLI [ATE1], the protein stability index by setting is: under setting [1], 4.25 ± 0.081; under setting [2], 4.19 ± 0.16.

For the sequence QGTAEEDHVDLSLSCTLVPRSGEQ [CDKN1A], the protein stability index under setting [1] turned out to be 5.19 ± 0.12 and the protein stability index under setting [2] worked out at 5.2 ± 0.28.

QHTPDQANSDRASIGRRRTELRRS [PLEKHN1] displayed a protein stability index under setting [1] of 4.95 ± 0.38 and a protein stability index under setting [2] of 5.34 ± 0.19.

QIAQLEASLAAAKKQLADETLLKV [LMNB1]: the protein stability index by setting is: under setting [1], 2.72 ± 0.65; under setting [2], 2.8 ± 0.46.

For the sequence QIHLDVDNDRTTPSDLDSTGNSLN [DLC1], the protein stability index reads like this: under setting [1], 5.19 ± 0.25; under setting [2], 5.28 ± 0.18.

Consider QKAPMTTVRGLHCMCTVGERLYVI [KLHL13], for which the protein stability index is, setting by setting: under setting [1], 3.21 ± 0.61; under setting [2], 2.75 ± 0.52.

For QKDSYQPPGNVYWPLRGKREAMLE [SPAG8], the protein stability index runs as follows: under setting [1], 3.58 ± 0.31; under setting [2], 3.62 ± 0.41.

As for QKLADLRSLNEEHSKQYRCLSFQP [VDR], the protein stability index was 3.07 ± 0.12 under setting [1] and 3.24 ± 0.17 under setting [2].

As to QLFEDPTVDKEVEIRKKVLKIYNK [MNAT1], the protein stability index is, setting by setting: under setting [1], 3.41 ± 0.18; under setting [2], 3.5 ± 0.29.

QLIVTARTTRGLDPLFGMCEKFLQ [INTS4]: the protein stability index under setting [1] stood at 2.15 ± 0.4 and the protein stability index under setting [2] turned out to be 2.06 ± 0.3.

Take QLLLHNTVIFYGADSEQADIARML [ZMYND11]: the protein stability index is, setting by setting: under setting [1], 2.28 ± 0.089; under setting [2], 2.3 ± 0.13.

On to QLQHDFPRALIFSTDDFFFREDGA [N4BP2L1], for which the protein stability index is 3.09 ± 0.24 under setting [1] and 3.08 ± 0.47 under setting [2].

As to QLRGQLQDLDSRLRAGSSEFDSEH [RASAL3], the protein stability index amounted to 4.71 ± 0.41 under setting [1] and 4.9 ± 0.46 under setting [2].

Turning to QPMQNGEEDRPLGGGEGHQPAGNR [BEX3], the protein stability index is 5.42 ± 0.4 under setting [1] and 5.36 ± 0.35 under setting [2].

QPPVPSLSEVKPPPPPPPAQTFLF [TRADD] yielded a protein stability index under setting [1] of 3.41 ± 0.49 and a protein stability index under setting [2] of 3.44 ± 0.12.

QPRKKYVQRKSDFDQTVFQEVFEP [NETO1]: the protein stability index by setting is: under setting [1], 4.14 ± 0.22; under setting [2], 4.26 ± 0.2.

As to QPVPNTTEPDYKSKDWVFLNYTYK [STK38L], the protein stability index stood at 3.33 ± 0.63 under setting [1] and 3.14 ± 0.31 under setting [2].

Take QQPPQQQPSQQQQPPPQEEPGTPS [KLHL14]: the protein stability index was found to be 5.67 ± 0.13 under setting [1] and 5.61 ± 0.4 under setting [2].

QRDEQLRALQERLGQQQRDMRRDE [FBF1]: the protein stability index is, setting by setting: under setting [1], 5.39 ± 0.28; under setting [2], 5.33 ± 0.31.

Turning to QREEVEERMWAAIQSWDINSRRNI [ZER1], the protein stability index is, setting by setting: under setting [1], 3.75 ± 0.36; under setting [2], 3.69 ± 0.29.

Consider QSEESDQGKYECVATNSAGTRYSA [PTPRD], for which the protein stability index is, setting by setting: under setting [1], 5.23 ± 0.33; under setting [2], 5.23 ± 0.34.

QSLYQEVFGRLRDENGRPYSPSQY [NFE2L1]: the protein stability index is 3.59 ± 0.31 under setting [1] and 3.4 ± 0.18 under setting [2].

Turning to QSSQRMRQNLKLLVEETSCQQNMI [CEP70], the protein stability index runs as follows: under setting [1], 3.65 ± 0.16; under setting [2], 3.66 ± 0.16.

For QTLQAMDSEDFPQAAKQIKDGVTM [FSD1], the protein stability index came to 4.97 ± 0.26 under setting [1] and 5.04 ± 0.083 under setting [2].

With QVAFGSLYRDDVLIKPSRVVAILA [GMCL1], the protein stability index is 2.38 ± 0.62 under setting [1] and 2.46 ± 0.48 under setting [2].

On to QVLKKIAQKALDLPSSGEGLAFFT [HMOX1], for which the protein stability index reads like this: under setting [1], 2.57 ± 0.7; under setting [2], 2.02 ± 0.41.

As for QVTAPGAPPLQAETPGSAVDYPLH [TNXB], the protein stability index under setting [1] is 4.45 ± 0.087 and the protein stability index under setting [2] was determined as 5.292 ± 0.007.

Consider QYREAAGPHEAFNKLWELCCQWLK [ZNF449], for which the protein stability index under setting [1] worked out at 2.93 ± 0.53 and the protein stability index under setting [2] was 3.05 ± 1.

In the case of QYRWDMMHRLGEPQARMREENMER [BEX1], the protein stability index is, setting by setting: under setting [1], 4.1 ± 0.37; under setting [2], 4.23 ± 0.16.

RAALKLEPSNKTIHAELSKLVKKH [FKBP8]: the protein stability index by setting is: under setting [1], 3.71 ± 0.19; under setting [2], 3.85 ± 0.12.

Regarding RAASSQRAEEEDDDIKQLAAWAT [CHMP4C], the protein stability index is 5.34 ± 0.4 under setting [3] and 5.2 ± 0.2 under setting [4].

As to RAMHLMKKREKQREQMEQMKQRIA [FAM50A], the protein stability index runs as follows: under setting [1], 3.27 ± 0.24; under setting [2], 3.51 ± 0.14.

Turning to RAQKQCRKSSFAFYQAVRDLLPVW [ANKRD9], the protein stability index runs as follows: under setting [1], 2.33 ± 0.49; under setting [2], 1.98 ± 0.31.

Consider RAQYDELARKNREELDKYWSQQIE [KRT18], for which the protein stability index came out at 3.43 ± 0.27 under setting [1] and 3.97 ± 0.85 under setting [2].

As to RAWIPSENIQDITVNIHRLHVKRS [ZMYND11], the protein stability index reads like this: under setting [1], 2.55 ± 0.31; under setting [2], 2.49 ± 0.16.

As to RCGKFLQDGLPPTWRDFRTLEAFH [MED27], the protein stability index reads like this: under setting [1], 2.17 ± 0.33; under setting [2], 2.12 ± 0.18.

Take RDKAKMRNLETQHKVLELTAENER [CEBPB]: the protein stability index under setting [1] stood at 4.9 ± 0.2 and the protein stability index under setting [2] came out at 5.24 ± 0.24.

RELRCKVFPIKHYQDKIRPYIQLP [TRIB1] returned a protein stability index under setting [1] of 2.15 ± 0.42 and a protein stability index under setting [2] of 2.32 ± 0.1.

On to RERMELLEEAKKMEMAKFRYILPV [RIPK4], for which the protein stability index runs as follows: under setting [1], 2.48 ± 0.22; under setting [2], 2.84 ± 0.4.

On to RFRFPSPILKVQYHPRDQNKVLVC [RBBP5], for which the protein stability index stood at 2.32 ± 0.11 under setting [1] and 2.32 ± 0.21 under setting [2].

On to RFRRFRFQEAAGPREALSRLQELC [ZNF263], for which the protein stability index was 2.6 ± 0.48 under setting [1] and 2.58 ± 0.45 under setting [2].

On to RFSHMSERDLQELSIQVEEERRAR [ZMAT5], for which the protein stability index came to 5.51 ± 0.56 under setting [1] and 4.97 ± 0.87 under setting [2].

As to RGRTQLFSLNPRSGSLITAGRIDR [PCDHGA10], the protein stability index turned out to be 3.29 ± 0.13 under setting [1] and 3.31 ± 0.34 under setting [2].

Turning to RHRQEVLCKEMVPLAEQTPLTLQS [ZSCAN9], the protein stability index turned out to be 4.31 ± 0.18 under setting [1] and 4.21 ± 0.077 under setting [2].

Consider RHWCMKHDELLAEHIKSLLIKNNS [INTS3], for which the protein stability index turned out to be 2.29 ± 0.12 under setting [1] and 2.38 ± 0.33 under setting [2].

Sequence RKEAYGKPVDIWACGVILYILLVG [CAMK2B] yielded a protein stability index under setting [1] of 2.95 ± 0.76 and a protein stability index under setting [2] of 2.73 ± 0.7.

As to RKLLESEECRMSGEFPSPVSISII [KRT71], the protein stability index reads like this: under setting [1], 2.42 ± 0.42; under setting [2], 2.19 ± 0.19.

Regarding RKQLQPTHCKYEGPRKARRLWFA, the protein stability index runs as follows: under setting [3], 2.85 ± 0.39; under setting [4], 3.04 ± 0.13.

Consider RKRMGTRRGRHEQSPTSRPRKVSS [C22orf15], for which the protein stability index was found to be 4.7 ± 0.25 under setting [1] and 4.59 ± 0.13 under setting [2].

Consider RLEREERNQTQVLRQQQDEAYLAS [FAF2], for which the protein stability index runs as follows: under setting [1], 4.96 ± 0.21; under setting [2], 5 ± 0.15.

For RLGELFNPYYDPLQWKSSHFERRD [CHGB], the protein stability index worked out at 2.45 ± 0.28 under setting [1] and 2.64 ± 0.24 under setting [2].

As to RLLLAGAEVQAKLENAEVLELTVR [HES6], the protein stability index amounted to 2.37 ± 0.38 under setting [1] and 2.63 ± 0.49 under setting [2].

Consider RLMRDMAQLRLQLEVSQLEGSLQQ [SMG5], for which the protein stability index by setting is: under setting [1], 2.39 ± 0.43; under setting [2], 2.6 ± 0.3.

Turning to RLNYDRKELEKRREESQHEIKDVL [PPFIA4], the protein stability index turned out to be 3.65 ± 0.42 under setting [1] and 4.76 ± 0.3 under setting [2].

Sequence RLRGLLRVLRGRPGAGSRRRGRMA [FBXO33] had a protein stability index under setting [1] of 2.6 ± 0.61 and a protein stability index under setting [2] of 3.14 ± 0.69.

RLSVELTSSLFRTEPMAWNETADL [CTNNB1] had a protein stability index under setting [1] of 2.83 ± 0.2 and a protein stability index under setting [2] of 3.03 ± 0.31.

For the sequence RLVDAVLGAEIRNGMAIIRPPGHH [HDAC6], the protein stability index by setting is: under setting [1], 1.96 ± 0.17; under setting [2], 2.02 ± 0.35.

The sequence RMSYGGSTCHAYSNTRDRYGRSWE [RBMY1A1] showed a protein stability index under setting [1] of 2.62 ± 0.21 and a protein stability index under setting [2] of 2.46 ± 0.099.

As to RNERSIQEKLQVLMAEGLLPAVKV [SMG5], the protein stability index reads like this: under setting [1], 2.69 ± 0.26; under setting [2], 2.6 ± 0.22.

The sequence RNSGPVVEKLKQMQEFFGLKVTGK [MMP1] yielded a protein stability index under setting [1] of 3.16 ± 0.079 and a protein stability index under setting [2] of 3.14 ± 0.39.

As for RNSTPPSLARNPAPGVLTNKRKTY [ZC2HC1A], the protein stability index is, setting by setting: under setting [1], 4.86 ± 0.21; under setting [2], 4.68 ± 0.17.

In the case of RPDTGDDAAGHGFCYCAGSHKRKR [GMCL1], the protein stability index reads like this: under setting [1], 3.81 ± 0.74; under setting [2], 4.47 ± 0.55.

For RQPAFDTFDGSLFAVFPSLNEEQT [ETS2], the protein stability index under setting [1] is 3.89 ± 0.2 and the protein stability index under setting [2] came to 4.04 ± 0.31.

For RQSLEGLSVRSVFFGVFQSFVVLL [CLPTM1], the protein stability index turned out to be 2.04 ± 0.14 under setting [1] and 1.99 ± 0.25 under setting [2].

As for RQSRRQSVSRFFADSGADPKGEPG [FBF1], the protein stability index is, setting by setting: under setting [1], 5.04 ± 0.12; under setting [2], 5.11 ± 0.17.

Consider RRILDELTLCKSDLESQVESLREE [KRT34], for which the protein stability index runs as follows: under setting [1], 4.82 ± 0.14; under setting [2], 4.75 ± 0.18.

As to RRVPPRFSIPPTNHEIMPGGSVNI [PTPRD], the protein stability index amounted to 3.38 ± 0.22 under setting [1] and 3.39 ± 0.22 under setting [2].
